Experimental data as given in patent US20250092135A1 (NANJING LEADS BIOLABS, published 2025).

T1: cynomolgus monkey GPRC5D protein (cynomolgus monkey, UniProt Q9NZD1 1-343 (human entry))
T1 construct: also called CynoGPRC5D; on HEK293T-CynoGPRC5D cells
T1 chain: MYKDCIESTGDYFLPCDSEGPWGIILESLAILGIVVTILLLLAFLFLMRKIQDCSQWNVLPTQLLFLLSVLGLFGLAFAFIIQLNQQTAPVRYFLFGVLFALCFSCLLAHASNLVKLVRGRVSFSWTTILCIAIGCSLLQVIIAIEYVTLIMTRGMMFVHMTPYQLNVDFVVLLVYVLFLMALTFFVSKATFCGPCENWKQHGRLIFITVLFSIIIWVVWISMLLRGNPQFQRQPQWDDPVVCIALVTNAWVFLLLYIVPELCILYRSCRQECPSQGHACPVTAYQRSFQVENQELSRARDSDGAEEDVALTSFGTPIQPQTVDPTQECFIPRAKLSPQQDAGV

T2: rhesus monkey MUC16 protein (ECT_TM RhMuc16) on 293T cells (rhesus monkey)
T2 chain: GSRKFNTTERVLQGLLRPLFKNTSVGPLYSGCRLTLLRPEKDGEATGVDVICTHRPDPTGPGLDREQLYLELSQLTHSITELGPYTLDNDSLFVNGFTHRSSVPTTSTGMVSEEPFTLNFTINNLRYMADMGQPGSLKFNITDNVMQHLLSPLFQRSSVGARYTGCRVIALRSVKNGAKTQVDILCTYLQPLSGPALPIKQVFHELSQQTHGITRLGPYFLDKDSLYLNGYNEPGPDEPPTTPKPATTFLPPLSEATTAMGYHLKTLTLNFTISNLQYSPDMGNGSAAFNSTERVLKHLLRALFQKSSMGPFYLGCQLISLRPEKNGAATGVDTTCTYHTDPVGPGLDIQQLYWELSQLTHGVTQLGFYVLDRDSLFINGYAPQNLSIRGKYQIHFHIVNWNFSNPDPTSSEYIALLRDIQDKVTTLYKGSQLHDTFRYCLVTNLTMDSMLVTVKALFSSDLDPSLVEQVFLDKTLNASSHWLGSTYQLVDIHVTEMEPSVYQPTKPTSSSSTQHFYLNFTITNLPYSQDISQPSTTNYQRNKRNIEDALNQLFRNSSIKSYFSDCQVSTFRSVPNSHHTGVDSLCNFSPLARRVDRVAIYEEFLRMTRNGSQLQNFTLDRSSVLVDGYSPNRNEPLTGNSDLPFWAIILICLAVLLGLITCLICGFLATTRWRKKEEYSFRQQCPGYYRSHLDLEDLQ

B1: anti-CD3/GPRC5D bispecific antibody Bi-29H6-6 (bispecific antibody)
heavy 1: QVQLVQSGAEVKKPGASVKVSCKASGYTFTTHYMYWVRQAPGQGLEWIGGINPSNEATNFNEKFKTKATLTVDKSTSTAYMELSSLRSEDTAVYYCTRVGGLSYTMDYWGQGTLVTVSSASTKGPSVFPLAPSSKSTSGGTAALGCLVKDYFPEPVTVSWNSGALTSGVHTFPAVLQSSGLYSLSSVVTVPSSSLGTQTYICNVNHKPSNTKVDKKVEPKSCDKTHTCPPCPAPEAAGGPSVFLFPPKPKDTLMISRTPEVTCVVVAVSHEDPEVKFNWYVDGVEVHNAKTKPREEQYNSTYRVVSVLTVLHQDWLNGKEYKCKVSNKALAAPIEKTISKAKGQPREPQVCTLPPSRDELTKNQVSLSCAVKGFYPSDIAVEWESNGQPENNYKTTPPVLDSDGSFFLVSKLTVDKSRWQQGNVFSCSVMHEALHNHYTQKSLSLSPGK
heavy 2: not shown
light: not shown
notes: G56E variant of the 29H6 VH; also called anti-GPRC5D/CD3 bifunctional antibody Bi-29H6-6
B2: control antibody REGN4018 (bispecific antibody, human IgG4 S228P, kappa)
heavy 1: QVQLVESGGGLVKPGGSLRLSCAASGFTFSNYYMSWVRQAPGKGLEWISYISGRGSTIFYADSVKGRITISRDNAKNSLFLQMNSLRAEDTAVYFCVKDRGGYSPYWGQGTLVTVSSASTKGPSVFPLAPCSRSTSESTAALGCLVKDYFPEPVTVSWNSGALTSGVHTFPAVLQSSGLYSLSSVVTVPSSSLGTKTYTCNVDHKPSNTKVDKRVESKYGPPCPPCPAPPVAGPSVFLFPPKPKDTLMISRTPEVTCVVVDVSQEDPEVQFNWYVDGVEVHNAKTKPREEQFNSTYRVVSVLTVLHQDWLNGKEYKCKVSNKGLPSSIEKTISKAKGQPREPQVYTLPPSQEEMTKNQVSLTCLVKGFYPSDIAVEWESNGQPENNYKTTPPVLDSDGSFFLYSRLTVDKSRWQEGNVFSCSVMHEALHNHYTQKSLSLSLGK
heavy 2: EVQLVESGGGLVQPGRSLRLSCAASGFTFDDYSMHWVRQAPGKGLEWVSGISWNSGSIGYADSVKGRFTISRDNAKNSLYLQMNSLRAEDTALYYCAKYGSGYGKFYYYGMDVWGQGTTVTVSSASTKGPSVFPLAPCSRSTSESTAALGCLVKDYFPEPVTVSWNSGALTSGVHTFPAVLQSSGLYSLSSVVTVPSSSLGTKTYTCNVDHKPSNTKVDKRVESKYGPPCPPCPAPPVAGPSVFLFPPKPKDTLMISRTPEVTCVVVDVSQEDPEVQFNWYVDGVEVHNAKTKPREEQFNSTYRVVSVLTVLHQDWLNGKEYKCKVSNKGLPSSIEKTISKAKGQPREPQVYTLPPSQEEMTKNQVSLTCLVKGFYPSDIAVEWESNGQPENNYKTTPPVLDSDGSFFLYSRLTVDKSRWQEGNVFSCSVMHEALHNRFTQKSLSLSLGK
light: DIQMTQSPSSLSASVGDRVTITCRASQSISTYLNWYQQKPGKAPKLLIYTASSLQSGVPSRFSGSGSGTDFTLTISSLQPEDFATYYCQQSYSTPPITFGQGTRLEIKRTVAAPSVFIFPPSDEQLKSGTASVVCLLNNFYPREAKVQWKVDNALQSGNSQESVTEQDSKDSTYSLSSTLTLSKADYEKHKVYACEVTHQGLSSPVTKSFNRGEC
notes: Derived from US20190389966A1; heavy chains REGN4018-8767pH and REGN4018-G20, light chain REGN4018-8767pL; also called positive control

Columns and labels:
human GPRC5D protein = molecular target: T3, human GPRC5D protein (human, UniProt Q9NZD1 1-345); assay: flow cytometry, HEK293T cells stably expressing human GPRC5D (sheet: 293T-huGPRC5D), PE anti-human IgG Fc secondary, MFI
T3 construct: NCI-H929 cells express it endogenously in the functional assays; also called HuGPRC5D; huGPRC5D
T3 sequence (Q9NZD1 whole entry): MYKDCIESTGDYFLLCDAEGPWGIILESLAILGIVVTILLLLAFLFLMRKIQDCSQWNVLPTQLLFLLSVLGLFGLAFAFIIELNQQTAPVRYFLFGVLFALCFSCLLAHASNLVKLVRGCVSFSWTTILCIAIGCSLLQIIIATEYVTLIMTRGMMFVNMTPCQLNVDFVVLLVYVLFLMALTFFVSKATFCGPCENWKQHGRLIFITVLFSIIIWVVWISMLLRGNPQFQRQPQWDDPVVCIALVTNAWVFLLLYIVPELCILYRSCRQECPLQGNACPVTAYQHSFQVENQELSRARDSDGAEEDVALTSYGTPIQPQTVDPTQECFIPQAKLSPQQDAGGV
Protocol: (2) Whether the anti-CD3/anti-GPRC5D bispecific antibodies in the present invention could bind to HEK293T cells stably expressing the human GPRC5D protein was determined by cell binding experiments. […] The plate was centrifuged at room temperature at 400×g, and then the supernatant was discarded. The cells were washed twice with PBS and centrifuged. The supernatant was discarded. The cell pellet was resuspended in fluorescent secondary antibody R-PE-conjugated AffiniPure Goat Anti-Human IgG, Fcγ Fragment Specific (Jackson ImmunoResearch, Cat #109-116-098) diluted in a 1:200 ratio. The cells were incubated in the dark at 4° C. for 30 min. The cells were washed twice with PBS, and 100 μL of PBS was added to each well to resuspend the cells. Fluorescence signals were detected using a Beckman Cytoflex flow cytometer.

[1] = molecular target: T1, cynomolgus monkey GPRC5D protein; assay: flow cytometry, HEK293T-CynoGPRC5D cells (sheet: 293T-cynoGPRC5D), PE anti-human IgG Fc secondary, MFI
Protocol: The HEK293T-CynoGPRC5D cell line shown in Table 2 was subjected to enzymatic digestion to obtain a single cell suspension. The single cell suspension was centrifuged at room temperature at 400×g, and then the medium was discarded. The cell pellet was washed once with PBS and then resuspended in the serially diluted bifunctional antibodies shown in Table 5 (at an initial concentration of 115.6 nM, 4-fold gradient dilution, 8 concentration points in total), and the cells were incubated at 4° C. for 30 min. The cells were washed once with PBS, and then fluorescent secondary antibody R-PE-conjugated AffiniPure Goat Anti-Human IgG, Fcγ Fragment Specific (Jackson ImmunoResearch, Cat #109-116-098) diluted in a 1:200 ratio was added. The cells were incubated in the dark at 4° C. for 30 min. The cells were washed twice with PBS and then resuspended, and finally, two-channel fluorescence signals were detected using a Beckman Cytoflex flow cytometer.

[2] = molecular target: T4, Human CD3D & CD3E heterodimer protein (human, UniProt P07766 23-126; P04234 22-105); assay: BLI (ForteBio Octet RED96), antibody on AHC sensor, 100 nM analyte, 1:1 model
T4 construct: Bought recombinant heterodimer; also called human CD3 protein (Sino Biological, Cat #CT038-H2508H)
T4 sequence (P07766 23-126 limits assumed, chain 1 of 2): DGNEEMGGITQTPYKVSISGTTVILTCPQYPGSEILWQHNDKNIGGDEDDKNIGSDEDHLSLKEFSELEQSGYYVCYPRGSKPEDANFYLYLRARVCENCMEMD
T4 sequence (P04234 22-105 limits assumed, chain 2 of 2): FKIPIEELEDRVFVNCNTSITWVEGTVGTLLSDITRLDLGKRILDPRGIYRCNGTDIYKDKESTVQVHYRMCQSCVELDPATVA
Source text: (§1) In this experiment, the binding affinity of the bispecific antibody [0913] for human CD3D & CD3E heterodimer protein (Sino Biological, Cat #CT038-H2508H) and monkey CD3D & CD3E heterodimer protein (Acro biosystems, Cat #CDD-C52W4) was detected using ForteBio Octet RED96 according to the manufacturer's instructions.
(§2) Briefly, an AHC sensor (ForteBio, Cat #18-5060) was placed in a running buffer (1×PBS, Hyclone, Cat #SH30256.01, containing 0.02% Tween 20, pH 7.0) and pre-equilibrated at room temperature for 10 min.
(§3) The experimental data were fitted and calculated using a Fortebio Data Analysis software 1:1 binding model.

[3] = molecular target: T5, Cynomolgus monkey CD3D & CD3E heterodimer protein (cynomolgus monkey, UniProt Q95LI5 22-117; Q95LI8 22-105); assay: as above
T5 construct: same catalogue number; also called monkey CD3 protein (Acro biosystems, Cat #CDD-C52W4)
T5 sequence (Q95LI5 22-117 limits assumed, chain 1 of 2): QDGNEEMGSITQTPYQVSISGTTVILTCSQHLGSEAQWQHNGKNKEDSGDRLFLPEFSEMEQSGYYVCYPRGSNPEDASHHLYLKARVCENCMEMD
T5 sequence (Q95LI8 22-105 limits assumed, chain 2 of 2): as the sequence (P04234 22-105 limits assumed, chain 2 of 2) above, with I5V, N15K, I20V, S32T, D33N, I34N, T64A, S74N, V83L counted along it
Source text: as §1, §2, §3

[4] = molecular target: T2, rhesus monkey MUC16 protein (ECT_TM …); assay: flow cytometry, 293T/rhesus MUC16 cells as printed on the sheet and in the legend (the example, paragraph 611, speaks of cynomolgus MUC16), PE anti-human IgG Fc secondary, MFI; EC50 table under the plot, unit from the axis Conc.(nM)
Protocol: Referring to the flow cytometry described above, the serially diluted test bispecific antibody (at an initial concentration of 100 nM, 5-fold dilution, 9 points) was added to the cells, and the plate was incubated at 4° C. for 30 min. The cells were washed twice with PBS, and then fluorescent secondary antibody R-PE-conjugated AffiniPure Goat Anti-Human IgG, Fcγ Fragment Specific was added. The cells were incubated at 4° C. for 30 min. The cells were washed twice with PBS and then resuspended, and finally, fluorescence signals were detected using a BD Accuri C5 (BD Bioscience) flow cytometer.

[5] = molecular target: T6, human MUC16 protein endogenously expressed on cells (human, UniProt Q8WXI7 1-14507); assay: flow cytometry, OVCAR3 cells (endogenous human MUC16), PE anti-human IgG Fc secondary, MFI; EC50 table under the plot, unit from the axis Conc.(nM)
T6 construct: whole, on cells; also called MUC16 on OVCAR3 cells; MUC16 in ovarian carcinoma tissue
Protocol: (1) Whether the anti-CD3/anti-MUC16 bispecific antibodies in the present invention could bind to the MUC16 protein endogenously expressed on human ovarian carcinoma cells (OVCAR3) (Cell Bank of Type Culture Collection Committee of the Chinese Academy of Sciences, Cat #TCHu228) was determined by cell binding experiments.
The experiments were performed using flow cytometry. OVCAR3 cells were digested, centrifuged and collected. The cells were resuspended in a PBS solution, and seeded into a 96-well plate (Corning, Cat #3799) at 1×10⁵ cells/well. The 96-well plate was centrifuged and then the supernatant was discarded. 100 μL of the serially diluted test bispecific antibody (at a maximum concentration of 200 nM, 5-fold dilution from 100 nM, 9 concentration points in total) was added to the OVCAR3 cells. The plate was incubated at 4° C. for 30 min and centrifuged (1000 rpm, 5 min), and then the supernatant was discarded. 100 μL of PBS solution was added to each well, and the cells were washed twice. 100 μL of fluorescent secondary antibody R-PE-conjugated AffiniPure Goat Anti-Human IgG, Fcγ Fragment Specific (Jackson ImmunoResearch, Cat #109-116-098) diluted in a ratio of 1:200 was then added. The cells were incubated at 4° C. for 30 min. After the cells were washed twice with the PBS solution, 100 μL of PBS solution was added to each well to resuspend the cells, and finally, fluorescence signals were detected using a BD Accuri C5 (BD Bioscience) flow cytometer according to the manufacturer's instructions. REGN4018 was used as a positive control.

Binder	EC50 (read off the curve) (human GPRC5D protein) [nM]	EC50 (read off the curve) [1] [nM]	Kd [2] [nM]	koff [2] [s⁻¹]	kon [2] [M⁻¹ s⁻¹]	Kd [3] [nM]	koff [3] [s⁻¹]	kon [3] [M⁻¹ s⁻¹]	EC50 [4] [nM]	EC50 [5] [nM]
B1	~3	~8	727	0.0158	21700	75.9	0.00631	83200		
B2									3.74	1.45
